This is an account of results in patent US20250277029A1 (Amgen, published 2025).

Assay [1] has as its target T1, human cannabinoid receptor 1 (huCB1), full length, expressed on cells (human, UniProt P21554 1-472). Put plainly: cell-based or functional assay.
The target of assay [2] is T1, human cannabinoid receptor 1 (huCB1), …. Put plainly: cell-based or functional assay. This is another data set of the same source.
Assay [3] has the same target. Put plainly: cell-based or functional assay. The source holds these as a separate data set.
Assay [4] addresses T2, huCB1 nanodisc (CB1-ND) (human, UniProt P21554 99-414).
T2 construct: The His-tagged CB1 is embedded in a POPC lipid nanodisc with MSP1D1 scaffold protein (molar ratio 480:8:1); also called huCB1-ND; #CB1-008
Put plainly: Octet BLI; antibody captured by anti-human Fc, CB1-nanodisc in solution, 1:1 model. For orientation: Biolayer interferometry detects binding as a change in optical thickness at a sensor tip.

Assay [5] concerns the target T1, human cannabinoid receptor 1 (huCB1), …. As to the kind of experiment: KinExA on-cell ranking, HEK 293T cells expressing full length CB1; reference antibody of the ratio.
In assay [6] the target is T3, human cannabinoid receptor type 2 (CB2) (human, UniProt P34972 1-360).
T3 construct: also called huCB2; full length hu CB2
T3 sequence (P34972 whole entry): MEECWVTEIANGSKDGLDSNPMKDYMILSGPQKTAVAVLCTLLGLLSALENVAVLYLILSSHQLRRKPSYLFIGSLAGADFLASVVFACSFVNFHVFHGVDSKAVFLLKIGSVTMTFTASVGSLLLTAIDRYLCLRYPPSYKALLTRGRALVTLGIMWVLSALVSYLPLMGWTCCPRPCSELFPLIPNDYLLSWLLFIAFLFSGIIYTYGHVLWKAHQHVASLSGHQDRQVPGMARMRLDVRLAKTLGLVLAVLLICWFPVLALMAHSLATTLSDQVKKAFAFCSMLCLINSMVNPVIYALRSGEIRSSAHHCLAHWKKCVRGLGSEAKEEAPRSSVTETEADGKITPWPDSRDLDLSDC
Put plainly: binding to huCB2, fold over mock (method not described).

The target of assay [7] is T3, human cannabinoid receptor type 2 (CB2). As to the kind of experiment: fold over mock (Table 14).
The target in assay [8] is T4, mouse CB1 (mouse, UniProt P47746 1-473).
T4 construct: also called muCB1; murine CB1
T4 sequence (P47746 whole entry): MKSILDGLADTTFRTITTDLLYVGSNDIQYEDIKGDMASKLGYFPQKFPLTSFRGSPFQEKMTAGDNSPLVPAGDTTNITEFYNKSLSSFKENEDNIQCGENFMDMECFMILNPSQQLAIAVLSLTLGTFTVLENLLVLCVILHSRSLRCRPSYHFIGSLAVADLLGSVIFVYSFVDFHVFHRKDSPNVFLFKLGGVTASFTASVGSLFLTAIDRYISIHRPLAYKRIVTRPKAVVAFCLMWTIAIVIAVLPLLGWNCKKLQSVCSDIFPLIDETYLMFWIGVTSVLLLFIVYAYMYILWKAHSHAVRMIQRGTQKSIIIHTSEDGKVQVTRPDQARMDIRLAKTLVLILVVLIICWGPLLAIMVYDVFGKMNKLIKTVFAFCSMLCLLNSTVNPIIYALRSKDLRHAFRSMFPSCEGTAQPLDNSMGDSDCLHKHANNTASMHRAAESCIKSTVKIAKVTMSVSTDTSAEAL
Put plainly: fold over mock (Table 14).

Assay [9] deals with T5, His-tagged huCB1-ND (human CB1 in nanodisc) (human).
T5 construct: CB1 construct of Cell 167(3) (2016) 750-762 expressed in Sf9 cells; POPC:MSP1D1:CB1 480:8:1; also called CB1-nanodisc; huCB1-Nanodisc; not shown: histidine purification tag
T5 sequence (P21554 99-414): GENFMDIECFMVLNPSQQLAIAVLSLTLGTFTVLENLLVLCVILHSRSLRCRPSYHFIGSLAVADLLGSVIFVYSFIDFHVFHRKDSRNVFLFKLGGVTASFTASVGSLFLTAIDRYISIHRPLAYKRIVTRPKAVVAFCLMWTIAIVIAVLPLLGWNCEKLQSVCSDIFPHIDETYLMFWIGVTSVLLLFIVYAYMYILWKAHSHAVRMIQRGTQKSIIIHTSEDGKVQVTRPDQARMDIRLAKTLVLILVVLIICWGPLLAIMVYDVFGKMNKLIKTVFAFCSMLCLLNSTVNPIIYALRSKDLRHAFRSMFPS
Put plainly: flow cytometry, yeast-displayed IgG, binding/display ratio. (In general: Flow cytometry measures light scatter and fluorescence of single cells or particles in a stream.)

The target in assay [10] is T5, His-tagged huCB1-ND (human CB1 in …). As to the kind of experiment: flow cytometry, yeast-displayed IgG, huCB1-ND over empty-ND.
Assay [11] has as its target T6, full length human CB1 expressed on cells (human, UniProt P21554 1-472).
T6 construct: also called huCB1; full length hu CB1
Put plainly: KinExA, on HEK 293T cells expressing full length CB1.

The target of assay [12] is T7, GFP-fused huCB1-SMALP (human CB1 in styrene maleic acid lipoparticles) (human, UniProt P21554 1-472).
T7 construct: Prepared as in Luna V. et al. 2018; also called huCB1-GFP-SMALP; wtCB1-SMALP; not shown: GFP fusion
T7 sequence (P21554 whole entry, the tested form may be a part): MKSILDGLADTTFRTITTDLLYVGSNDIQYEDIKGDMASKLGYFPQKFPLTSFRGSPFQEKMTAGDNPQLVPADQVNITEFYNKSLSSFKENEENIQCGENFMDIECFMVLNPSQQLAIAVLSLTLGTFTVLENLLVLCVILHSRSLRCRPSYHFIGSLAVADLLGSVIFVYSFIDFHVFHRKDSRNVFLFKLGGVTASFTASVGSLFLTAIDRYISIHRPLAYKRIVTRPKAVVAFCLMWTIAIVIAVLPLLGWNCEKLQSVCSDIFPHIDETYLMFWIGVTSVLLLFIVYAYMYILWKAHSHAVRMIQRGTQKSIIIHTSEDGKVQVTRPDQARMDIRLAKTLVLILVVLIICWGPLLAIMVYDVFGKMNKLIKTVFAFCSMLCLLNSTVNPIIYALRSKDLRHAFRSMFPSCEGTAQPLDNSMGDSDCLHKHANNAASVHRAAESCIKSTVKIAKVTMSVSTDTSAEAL
Put plainly: flow cytometry, yeast-displayed IgG, GFP MFI.

The target in assay [13] is T4, mouse CB1. As to the kind of experiment: binding to muCB1, fold over mock (method not described).
Assay [14] concerns the target T1, human cannabinoid receptor 1 (huCB1), …. As to the kind of experiment: cell-based or functional assay. The source holds these as a separate data set.
Assay [15] shares this target. As to the kind of experiment: cell-based or functional assay. The source holds these as a separate data set.
Assay [16] has the same target. As to the kind of experiment: KinExA on-cell ranking, HEK 293T cells expressing full length CB1; %IFF of LIBC523661 divided by %IFF of antibody.
The target is the same in assay [17]. Put plainly: cell-based or functional assay. The source holds these as a separate data set.

T2 sequence (P21554 99-414 limits assumed): as the sequence (P21554 99-414) above
T1 sequence (P21554 whole entry): as the sequence (P21554 whole entry, the tested form may be a part) above
T6 sequence (P21554 whole entry): as the sequence (P21554 whole entry, the tested form may be a part) above

B1: LIBC523661-1 (antibody, V domains shown)
VH: QVQLQESGPGLVKPSQTLSLTCTVSGGSIRRGGDYWSWIRQHPGKGLEWIGHIYYEGSTKYNPSFKGRATISVNTYKNQFSLKLSSVTAADTAVYYCARDYDPVTGHSYYYYGMDVWGQGTTVTVSS
VL: DIVMTQSPLSLPVTPGEPASISCRSSQSLLTSSGYNYVDWYLQKPGQSPQLLIYQGSNRASGVPDRFSGSGSGTDFTLKISRVEAEDVGVYYCRQARAIPRTFGQGTKVEIKR
notes: Expressed as IgG1 SEFL2 mAb
For orientation: Kd means a measure of binding affinity in units of concentration. Read a low Kd as tighter binding. By koff is commonly meant a measure of how fast the partners let go of each other. Read a low koff as a long-lived complex. As usually defined, the kon is the rate constant with which the complex forms. A higher kon goes with fast association. On to B1, for which, in assay [1], the “Mean IC50 (nM, n = 3), cAMP antagonist assay” value was 3.88 nM. Also, in assay [2], the “Mean IC50 (nM), cAMP antagonist assay” value amounted to 3.3 nM; the “Mean IC50, -fold vs Rimo” value is 1.1 fold vs Rimonabant; the “n = 1 IC50 (nM), cAMP antagonist assay” value amounted to 5.24 nM; the “n = 1 IC50, -fold vs Rimo” value amounted to 1.24 fold vs Rimonabant. For the same molecule, in assay [2], the “n = 2 IC50 (nM), cAMP antagonist assay” value stood at 1.35 nM and the “n = 2 IC50, -fold vs Rimo” value came to 0.75 fold vs Rimonabant. Further, the “IC50, nM (CP agonist)” value in assay [3] is 3.9 nM. Besides, in [4], the Kd is 77 nM, the koff was 0.00275 s⁻¹ and the kon stood at 35700 M⁻¹ s⁻¹. Moreover, the “Relative binding (KinExA, on cell; vs LIBC523661 mAb)” value in assay [5] amounted to 1 ratio.

B2: LIBC523661-1 (antibody, IgG1, V domains shown)
VH: QVQLQESGPGLVKPSQTLSLTCTVSGGSIRRGGDYWSWIRQHPGKGLEWIGHIYYEGSTKYNPSFKGRATISVNTYKNQFSLKLSSVTAADTAVYYCARDYDPVTGHSYYYYGMDVWGQGTTVTVSS
VL: DIVMTQSPLSLPVTPGEPASISCRSSQSLLTSSGYNYVDWYLQKPGQSPQLLIYQGSNRASGVPDRFSGSGSGTDFTLKISRVEAEDVGVYYCRQARAIPRTFGQGTKVEIKR
On to B2, for which the Fold over mock in [6] turned out to be 0.8 fold; in [13], 0.7 fold. Moreover, the binding result in assay [7] and in [8] was “no binding” each time. Also, the “relative binding to 0.2 nM huCB1-ND (relative to 10D10N35Y)” value in assay [9] is 4.03 fold. Also, in [10], the “specific huCB1 binding (CB1 ND/Empty ND ratio)” value was 9.32 ratio. The molecule further registered a Kd in [11] of 0.064 nM. For the same molecule, the “100 nM huCB1-SMALP binding (normalized to 10D10)” value in assay [12] stood at 8 fold.

B3: LIBC528116-1 (antibody, V domains shown)
VH: QVQLQESGPGLVKPSQTLSLTCTVSGGSIRRGGDYWAWIRQHPGKGLEWIGHVYYTGSTNYNPRFKDRATISVNTYKNQFSLKLSSVTAADTAVYYCARNYDTVTGYSYYYYGMDVWGQGTTVTVSS
VL: DIQLTQSPSTLSASVGDRVTITCRASQSISNYLNWYQQKPGKAPKLLIYAASSLHSGVPSRFSGSGSGTDFTLTISSLQPEDFASYYCQQYQSYPLTFGQGTKVEIKR
notes: Expressed as IgG1 SEFL2 mAb; also called 37940-4
What is called IC50 is the concentration at which inhibition is half-maximal. Low readings indicate greater potency, high ones weaker potency. Consider B3, for which the “Mean IC50 (nM, n = 3), cAMP antagonist assay” value in assay [1] was found to be 1.77 nM. Further, in [2], the “Mean IC50 (nM), cAMP antagonist assay” value is 2.4 nM; the “n = 1 IC50 (nM), cAMP antagonist assay” value was 3.93 nM; the “n = 2 IC50 (nM), cAMP antagonist assay” value was 0.88 nM. Also, in [14], the “Antagonist assay IC50 (nM), 2-AG” value was 7.2 nM; the “Antagonist assay IC50 (nM), Anandamide” value was found to be 17 nM; the “Antagonist assay IC50 (nM), CP 55,940” value came out at 1.8 nM; the “Inverse agonist assay IC50” value is 31.7 nM. Further, the “IC50, nM (CP agonist)” value in [3] was determined as 1.8 nM. Also, the affinity in assay [4], expressed as Kd, was 29 nM. Also, the “IC50” value in assay [15] was 2.7 nM.

B4: LIBC527814-1 (antibody, V domains shown)
VH: QVQLQESGPGLVKPSQTLSLTCTVSGGSIRRGGDYWGWIRQHPGKGLEWIGHVYQTGSTKYNPSFKDRATISVNTYKNQFSLKLSSVTAADTAVYYCARNYDTLTGYSYYYYGMDVWGQGTTVTVSS
VL: DIQMTQSPSTLSASVGDRVTITCRASQSISNYLNWYQQKPGKAPKLLIYAASSLHSGVPSRFSGSGSGTDFTLTISSLQPEDFASYYCQQYQSYPLTFGQGTKVEIKR
notes: Expressed as IgG1 SEFL2 mAb
In the case of B4, the “Mean IC50 (nM, n = 3), cAMP antagonist assay” value in [1] came out at 2.07 nM. In addition, in [2], the “Mean IC50 (nM), cAMP antagonist assay” value came out at 2.97 nM; the “Mean IC50, -fold vs Rimo” value turned out to be 0.99 fold vs Rimonabant; the “n = 1 IC50 (nM), cAMP antagonist assay” value came to 4.72 nM; the “n = 1 IC50, -fold vs Rimo” value turned out to be 1.12 fold vs Rimonabant. For the same molecule, in assay [2], the “n = 2 IC50 (nM), cAMP antagonist assay” value came out at 1.22 nM and the “n = 2 IC50, -fold vs Rimo” value is 0.68 fold vs Rimonabant. Further, the “Relative binding (KinExA, on cell; vs LIBC523661 mAb)” value in [16] turned out to be 1.9 ratio. The “IC50, nM (CP agonist)” value in assay [3] came to 2.1 nM. Besides, in assay [17], the “IC50 (nM), antagonist assay” value was found to be 3.8 nM. In [4], binding was characterised by a dissociation constant (Kd) of 35 nM, the koff turned out to be 0.00198 s⁻¹ and the kon worked out at 56600 M⁻¹ s⁻¹.
